Results reported in patent US20240124857A1, “COMPOSITION FOR GUT HEALTH” (DUPONT NUTRITION BIOSCIENCES APS, priority 2021, published 2024).

B1: CRC22110: GDA1/CD39 family enzyme, accession EKE69473.1, SEQ ID NO:9 (predicted mature), SEQ ID NO:1 (protein, listed as Gallaecimonas xiamenensis)
chain: ADKPACRAVFDAGSSGTRLFLYVQQEGGWQPWPGAKLGALADPVRQHQGPKAMAALAADLANSLEALRQDGPTNSEGQPRWQGFDWQQACRLQSVSVLATAGMRLAEQQDPVASVALWQEVQQALAGLLGPAVAIDARTLTGFEEGFYAWLAARARLGRSDMGIVEMGGASSQVAFPCPACDRADDAVQQVRLEGQTLDFYSYSFLGLGQDEAPKVLGVPHACRYGAGVKDPNWQLGQCQAQLPLTLGRALKDPYNFQGQGQGGYRQVPTEKAGVKDWLLTGAFQYNTPDQLDSCCLNQGQCYQPSTACFRVAYLPLYLDSLGVDPHSPDLDVSWTLGAVLCRNEQCLAPSKPPCRWRKAGCLAPSVGDGRPEGRPGQQPGGVQHRQH
B2: CRC22105: GDA1/CD39 family enzyme, accession WP_045094910.1, SEQ ID NO:8 (protein, listed as Legionella fallonii)
chain: ENASCDKHQCITVIDAGSTGSRVHIYAYDLDETNTPTNINEIWTKKIKPGFATIDPNYNTIDAYLTILLSGAPTQQGPVYFYATAGMRLLPASKQKLYYQELQRWFTQQTQWHFVEAKTITGNEEALYDWLSVNYHLGTLKSVQNKAIGVMDMGGASVQIVFPIQKNENIHGRSQVELNIYGQRINLFVHSFLGLGQTEMSHQFLNSTSCFTNDYPLPDGEMGLGNALSCEQEVSSLMNAVHGVSKTIQPVLAANSVDSWYAIGGLTNLADNKLFNFVNGQLTNQSLIEQADSQICHQQWSKLDAQYPNDDYIYGYCLFSSYFYALMVDGYGISPEQTVNYISPSINLDWTKGVVLHHLS
B3: CRC21323: Acid phosphatase (Class A), accession WP_054306375.1, SEQ ID NO:18 (predicted mature), SEQ ID NO:2 (protein, listed as Serratia rubidaea)
chain: AQTPGFLTPETAPDSLQILPPPPAENTTAFLNDKAAYETGKTLKDAQRQALAASDADYKNISAAFSAAFGEEISPEKTPALYALLQGVLQDSHDYAMRAAKDHYMRVRPFVVYKDSTCTPEKDKSMAKTGSYPSGHASFGWATALVLTEINPARETEILKRGYDFGQSRVVCGAHWQSDVDNGRLMGAAVVAALHGNQGFNDALAKAKAEFAKR

Assays:
[1] = tested on: commensals from HMT in Apc/minJ mice; experiment: Engraftment of human microbiota transplant (HMT) commensals, 16S sequencing of day 13 fecal samples; type: in vivo; details: group 6 (Ab + HMT + Enz) compared with group 5 (Ab + HMT); FIG. 11
Procedure: Apc/minJ mice have a mutated adenomatous polyposis coli gene and are more prone to develop colitis and tumors. In this Example, and using this model, 6-7 weeks old mice were subjected to an antibiotics cocktail of vancomycin, ampicillin, and neomycin (1 mg/mL) for 7 days in drinking water in order to induce a gut inflammatory response. Control mice (Groups 1 and 2) drank only distilled water. Groups 4 and 6 received CRC22110 ay 10 μg/dose enzyme by oral gavage and groups 5 and 6 received human microbiota transplant (HMT) by gavage. HMT was prepared by inoculating fecal sample from a healthy human donor in 20 ml of YCFAC media. Culture was grown anaerobically for 16 hrs at 37° C. Cells were collected by centrifugation and washed with PBS. Cells were resuspended in 10% glycerol and cell numbers were estimated by plating on YCFAC agar plates. Promotion of Engraftment: Fecal samples were collected from each mouse per day. Day 13 fecal samples were processed and 16S sequencing was done to evaluate the structure of microbiome. Group 5 was compared with group 6 and engraftment of HMT was evaluated. […]

[2] = ATPase activity at 0.05 ppm enzyme on 0.1 mM ATP (absorbance 620 nm); type: biochemical; details: for Activity on ATP (absorbance at 620 nm, blank subtracted), pH 5.0: 50 mM IVIES buffer pH 5; for Activity on ATP (absorbance at 620 nm, blank subtracted), pH 6.0: 50 mM IVIES buffer pH 6
Outline: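 Enzyme at 0.05 ppm with 0.1 mM ATP in 50 mM MES buffer, pH 6 and pH 5, with 5 mM CaCl2; reaction stopped after 5 min. Released phosphate detected by malachite green at 620 nm, water blank subtracted.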

[3] = Enzyme activity towards ATP at pH 3 to 9 (malachite green phosphate detection); type: biochemical; details: FIG. 1; 250 μM ATP, 5 mM CaCl2, pH 3 to 9
Procedure: (§1) Enzyme activity towards ATP or ADP at pH 3 to 9: The ability of candidate enzymes to degrade ATP or ADP to AMP and free phosphate (Pi) was measured using a standard malachite green phosphate detection kit (Sigma Aldrich cat no. MAK307). The enzyme reactions were carried out in 96-well plates with a total volume of 150 μL and contained 250 μM of a substrate, 50 mM of a buffer, 5 mM CaCl2, and a variable concentration of enzyme. The substrate was ATP or ADP. The buffer was glycine (pH 3), acetate (pH 4, 4.5, 5), bis-Tris (pH 5.5, 6, 6.5), or Tris (pH 7, 8, 9). The concentration of enzyme varied from about 1 μg/mL to 1 ng/mL and was adjusted based on the activity of the enzyme so that the amount of phosphate released during the assay was with the dynamic range of the assay (5-100 μM phosphate). The enzyme concentration was determined by the absorbance at 280 nm and using the predicted molecular weight and molar extinction coefficient to calculate the concentration. […] The malachite green reaction mixture was allowed to rest at room temperature for 45-60 min and the absorbance at 620 nm was measured. Lastly, the absorbance of the phosphate standards were used to convert the absorbance readings of each sample into phosphate concentrations and the negative control was subtracted from each reaction.

[4] = Relative activity on ATP of CRC22110 single-site variants; type: biochemical; details: in comparison to CRC22110 wild type
Apc/minJ mice = experiment: Antibiotic-induced gut inflammation in Apc/minJ mice: DAI, colon length, histopathology; type: in vivo; details: antibiotics cocktail, 10 μg/dose oral gavage
Procedure: Apc/minJ mice have a mutated adenomatous polyposis coli gene and are more prone to develop colitis and tumors. In this Example, and using this model, 6-7 weeks old mice were subjected to an antibiotics cocktail of vancomycin, ampicillin, and neomycin (1 mg/mL) for 7 days in drinking water in order to induce a gut inflammatory response. Control mice (Groups 1 and 2) drank only distilled water. Groups 4 and 6 received CRC22110 ay 10 μg/dose enzyme by oral gavage and groups 5 and 6 received human microbiota transplant (HMT) by gavage. HMT was prepared by inoculating fecal sample from a healthy human donor in 20 ml of YCFAC media. Culture was grown anaerobically for 16 hrs at 37° C. Cells were collected by centrifugation and washed with PBS. Cells were resuspended in 10% glycerol and cell numbers were estimated by plating on YCFAC agar plates.
Disease Severity: Disease severity was scored using a clinical disease activity index (DAI), calculated as previously described using the following parameters: stool consistency, presence or absence of fecal blood and weight loss (Cooper et al., 1993, Laboratory investigation; a journal of technical methods and pathology. 69(2):238-49). The mice were killed on days 12 and 16, colons were measured, and the tissue was prepared for histopathological studies. The colon was fixed in 10% formaldehyde-saline. Hematoxylin and eosin stain (HE)-stained sections are graded based on a scoring system adapted from Burich et al., 2001, Am. J. Physiol. Gastrointest. Liver Physiol. 281:G764-G778 and Hausmann et al., 2007, Clin Exp Immunol. 2007 May; 148(2):373-81. Histology scoring is performed, and a combined score of inflammatory cell infiltration and tissue damage is determined for all the groups.

[5] = Enzyme activity towards ADP at pH 3 to 9 (malachite green phosphate detection); type: biochemical; details: FIG. 2; 250 μM ADP, 5 mM CaCl2, pH 3 to 9
Procedure: as §1

[6] = Enzyme acid resistance: residual activity on ATP after incubation at pH 2; type: physicochemical; details: FIG. 4
Procedure: Enzyme acid resistance: Candidate enzymes were tested for their ability to resist inactivation at low pH by incubating the enzymes in an “acid buffer” of 50 mM glycine and 5 mM CaCl2 at pH 2 for 15 or 60 minutes and comparing their activity to enzymes in a “control buffer” at their optimum pH. The optimum buffer for CRC21323 and CRC21322 was 50 mM acetate pH 4.5 with 5 mM CaCl2. The optimum buffer for all other enzymes was 50 mM bis-Tris pH 6.5 with 5 mM CaCl2. After incubating in the acidic glycine buffer, the enzyme mixtures were neutralized by mixing with an equal volume of neutralization buffer. The neutralization buffer for CRC21323 and CRC21322 was 100 mM acetate and 10 mM CaCl2 at pH 4.5. The neutralization buffer for the other enzymes was 100 mM bis-Tris and 10 mM CaCl2 at pH 6.5. Next, the acid-stressed and control enzyme were tested for their ability to release phosphate from ATP using the reaction conditions and malachite green assay as described in with the following changes. The only substrate tested was ATP. CRC21323 and CRC21322 were tested with a buffer of acetate pH 4.5, but all other enzymes were tested in a buffer of bis-Tris pH 6.5. After determining the concentration of phosphate in each reaction, the residual activity of each enzyme after 15 or 60 min incubation in the “acid buffer” was calculated by dividing the acid-stressed by the control enzyme phosphate concentrations for each enzyme.

[7] = tested on: Acute DSS colitis in C57BL/6 mice; experiment: Chemically-induced DSS colitis mouse model, disease activity index (DAI); type: in vivo; details: for reduction in DAI score compared to control: catheterized mice, test items via cecum BID, FIG. 6A, 6B
Description: Acute DSS colitis was induced in C57BL/6 mice according to the previously published method with minor modification (Sann et al., 2013, Life Sci. April 9; 92(12):708-18). The mice were fed 3% (w/v) DSS dissolved in the drinking water on day one to day five. Fresh DSS solution was provided every other day. Control mice (Group 1) drank only distilled water. Groups 4 to 8 received candidate acid phosphatase enzymes by oral gavage and groups 9 to 12 received enzymes via catheter (Table 2). DAI was calculated as described earlier (Cooper et al., 1993, Laboratory investigation; a journal of technical methods and pathology. 69(2):238-49).

[8] = Enzyme substrate specificity on nucleotide substrates (malachite green assay); type: biochemical; details: FIG. 3; bis-Tris pH 6.5 (CRC21323, CRC21322 acetate pH 4.5; CD39 pH 7)
Procedure: as §1, with “The concentration of enzyme varied from about 1 μg/mL to 1 ng/mL and was adjusted based on the activity of the enzyme so that the amount of phosphate released during the assay was with the dynamic range of the assay (5-100 μM phosphate).” left out
Enzyme substrate specificity: The activity of the enzymes on different nucleotide substrates was tested using the malachite green assay. […] After converting the absorbance to phosphate concentration, the activity of each enzyme was set relative to the activity on ATP.

[9] = non-catheterized mice, oral gavage BID, FIG. 5A, 5B

Molecule	engraftment of commensals from HMT [1]	Activity on ATP (absorbance at 620 nm, blank subtracted), pH 5.0 [2]	Activity on ATP (absorbance at 620 nm, blank subtracted), pH 6.0 [2]	specific activity on ATP over a range of pHs [3]	Relative activity (%) on ATP [4] [%]	improvement in DAI score compared to control (Apc/minJ mice; FIG. 8) [%]	colon length compared to control (Apc/minJ mice; FIG. 9)	focal hyperplasia in the colon (histopathologic analysis) (Apc/minJ mice; FIG. 10)	specific activity on ADP over a range of pHs [5]	residual activity after incubation at pH 2 ([6]; 60 min in acid buffer, 50 mM glycine, 5 mM CaCl2)	reduction in DAI score compared to control [7] [%]	DAI score compared to CRCO2733 [7, 9]	activity on different nucleotide substrate relative to ATP [8]	stability in acid resistance assay ([6]; pH 2 for 15 or 60 min)	improvement in DAI score compared to control [7, 9] [%]
B1	better engraftment of several commensals from HMT	0.60	0.37	most active enzyme	100	25	significant improvement	absent	most active enzyme	greatest resistance	47	significant reduction			
B2		0.26	0.28										noticeably reduced activity on UTP/UDP and CTP/CDP		
B3		0.39	0.10								40			least stable	43
